Results taken from patent US20260049105A1, “SELECTIVE MC4R LIGAND FOR TREATING OBESITY AND COGNITIVE LOSS” (ARIZONA BOARD OF REGENTS ON BEHALF OF THE UNIVERSITY OF …, priority 2022, published 2026).
Like-named read-outs stand apart in the source and are kept apart here.

Key:
[1] = molecular target: human melanocortin 4 receptor (human) (UniProt P32245); assay: competition with 125I-NDP-α-MSH on whole HEK293 cells expressing hMC4R
[2] = molecular target: human melanocortin 3 receptor (human) (UniProt P41968); assay: competition with 125I-NDP-α-MSH, cells expressing hMC3R
[3] = molecular target: human melanocortin 5 receptor (human) (UniProt P33032); assay: competition with 125I-NDP-α-MSH, cells expressing hMC5R
[4] = molecular target: human melanocortin 4 receptor (human) (UniProt P32245); assay: competition with 125I-NDP-α-MSH, ratio of IC50 values
[5] = molecular target: human melanocortin 3 receptor (human) (UniProt P41968); assay: cell-based or functional assay
[6] = molecular target: human melanocortin 4 receptor (human) (UniProt P32245); assay: cell-based or functional assay
[7] = molecular target: human melanocortin 1 receptor (human) (UniProt Q01726); assay: cell-based or functional assay
[8] = molecular target: human melanocortin 5 receptor (human) (UniProt P33032); assay: cell-based or functional assay
[9] = molecular target: human melanocortin 1 receptor (human) (UniProt Q01726); assay: competition with 125I-NDP-α-MSH, cells expressing hMC1R
[10] = molecular target: human melanocortin 4 receptor (human) (UniProt P32245); assay: plasmon waveguide resonance, hMC4R membranes
[11] = molecular target: human melanocortin 4 receptor (human) (UniProt P32245); assay: competition with 125I-NDP-α-MSH on whole HEK293 cells expressing hMC4R; remark: listed apart in the source

Sequence of human melanocortin 3 receptor (human) (P41968 whole entry): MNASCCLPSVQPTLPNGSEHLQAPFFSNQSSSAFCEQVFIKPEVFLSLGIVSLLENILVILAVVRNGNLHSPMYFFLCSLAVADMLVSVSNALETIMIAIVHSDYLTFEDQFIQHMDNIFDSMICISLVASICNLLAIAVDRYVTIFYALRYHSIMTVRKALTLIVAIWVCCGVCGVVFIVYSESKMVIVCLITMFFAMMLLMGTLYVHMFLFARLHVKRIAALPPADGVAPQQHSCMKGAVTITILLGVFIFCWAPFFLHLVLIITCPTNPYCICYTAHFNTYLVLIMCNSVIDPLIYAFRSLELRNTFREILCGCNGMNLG
Sequence of human melanocortin 4 receptor (human) (P32245 whole entry): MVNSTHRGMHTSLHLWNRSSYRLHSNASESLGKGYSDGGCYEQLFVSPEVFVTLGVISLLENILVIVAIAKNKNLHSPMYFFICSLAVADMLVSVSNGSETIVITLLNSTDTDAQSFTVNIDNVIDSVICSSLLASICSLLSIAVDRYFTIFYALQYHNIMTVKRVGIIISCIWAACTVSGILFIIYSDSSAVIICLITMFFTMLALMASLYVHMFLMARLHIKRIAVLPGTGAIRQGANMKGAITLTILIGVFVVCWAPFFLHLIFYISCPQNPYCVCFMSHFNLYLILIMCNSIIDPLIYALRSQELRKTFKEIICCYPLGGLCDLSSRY
Sequence of human melanocortin 5 receptor (human) (P33032 whole entry): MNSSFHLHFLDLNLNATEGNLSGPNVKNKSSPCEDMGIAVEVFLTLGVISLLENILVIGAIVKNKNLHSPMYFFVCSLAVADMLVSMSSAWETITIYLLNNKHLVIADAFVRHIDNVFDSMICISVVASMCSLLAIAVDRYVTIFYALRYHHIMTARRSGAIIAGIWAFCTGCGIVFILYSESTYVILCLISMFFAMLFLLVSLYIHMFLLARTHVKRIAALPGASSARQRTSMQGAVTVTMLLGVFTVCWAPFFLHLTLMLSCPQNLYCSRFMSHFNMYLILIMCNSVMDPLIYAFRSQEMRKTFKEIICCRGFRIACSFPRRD
Sequence of human melanocortin 1 receptor (human) (Q01726 whole entry): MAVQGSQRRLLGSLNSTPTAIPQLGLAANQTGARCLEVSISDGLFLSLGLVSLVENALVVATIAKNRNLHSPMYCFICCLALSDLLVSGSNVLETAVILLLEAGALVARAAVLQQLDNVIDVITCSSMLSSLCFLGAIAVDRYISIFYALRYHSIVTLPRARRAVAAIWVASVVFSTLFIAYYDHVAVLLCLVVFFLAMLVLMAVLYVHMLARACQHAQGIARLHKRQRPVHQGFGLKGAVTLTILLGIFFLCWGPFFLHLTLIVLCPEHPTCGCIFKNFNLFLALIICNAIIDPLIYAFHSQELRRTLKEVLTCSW

Substance | BE% (percent [125I]NDP-α-MSH displacement at 10 µM) [1] | IC50 [1] | BE % (percent NDP-α-MSH displacement at 10 µM) [2] | BE % (percent NDP-α-MSH displacement at 10 µM) [3] | IC50 [3] | Act % [5] | EC50 (nM), cAMP accumulation [5] | Act % [6] | EC50 (nM), cAMP accumulation [6] | Act % [7] | EC50 (nM), cAMP accumulation [7] | Act % [8] | EC50 (nM), cAMP accumulation [8] | BE % (percent NDP-α-MSH displacement at 10 µM) [9] | IC50 [9] | IC50 [2] | further results
Ac-Arg-cyclo[Asp-Pip-D-Phe(4-Cl)-βArg-βTrp-Lys]-NH2 (peptide) | 100% | 0.4 nM | 10% | 75% | 70 nM | 63% | > 1000 nM | 87% | 4 nM | 90% | 240 nM | 76% | 295 nM | 100% | 27 nM | – | fold higher binding affinity to hMC4R than hMC1R [4]: 68 fold; fold higher binding affinity to hMC4R than hMC3R [4]: > 1000 fold; fold higher binding affinity to hMC4R than hMC5R [4]: > 1000 fold; EC50 (cAMP) [6]: 4.2 nM; PWR resonance position, p-polarization (hMC4R sole 26.44) [10]: 26.9 degrees
Ac-Arg-cyclo[Asp-Pip-D-Phe-Arg-βTrp-Lys]-NH2 (peptide) | 0% | – | 60% | 66% | 350 nM | 88% | 680 nM | 63% | > 1000 nM | 88% | 120 nM | 95% | 580 nM | 100% | 3 nM | 149 nM | –
Ac-Arg-cyclo[Asp-Pip-D-Phe(4-F)-βArg-βTrp-Lys]-NH2 (peptide) | 59% | 248 nM | 39% | 90% | 59 nM | 49% | > 1000 nM | 120% | > 1000 nM | 61% | > 1000 nM | 51% | > 1000 nM | 0% | – | 396 nM | –
Ac-Arg-cyclo[Asp-Pip-D-Phe(4-Cl)-βArg-Trp-Lys]-NH2 (peptide) | 100% | 8 nM | 100% | 0% | – | 46% | 360 nM | 66% | 110 nM | 89% | 130 nM | 38% | > 1000 nM | 100% | 5 nM | 108 nM | –
RM493 (peptide) | – | – | – | – | – | – | – | – | – | – | – | – | – | – | – | – | PWR left shift against hMC4R sole, p-polarization [10]: 0.25 degrees; PWR resonance position, s-polarization (sole MC4R 33.29) [10]: 33 degrees

Continued by falling IC50 [9], values first:

BE% (percent [125I]NDP-α-MSH displacement at 10 µM) [1] | IC50 [1] | BE % (percent NDP-α-MSH displacement at 10 µM) [2] | BE % (percent NDP-α-MSH displacement at 10 µM) [3] | IC50 [3] | Act % [5] | EC50 (nM), cAMP accumulation [5] | Act % [6] | EC50 (nM), cAMP accumulation [6] | Act % [7] | EC50 (nM), cAMP accumulation [7] | Act % [8] | EC50 (nM), cAMP accumulation [8] | BE % (percent NDP-α-MSH displacement at 10 µM) [9] | IC50 [9] | IC50 [2] | Substance | further results
100% | 0.1 nM | 100% | 46% | 607 nM | 87% | 120 nM | 84% | 16 nM | 82% | 190 nM | 82% | 290 nM | 30% | 270 nM | 7 nM | Ac-Arg-cyclo[Asp-Pip-D-Phe-βArg-βTrp-Lys]-NH2 (peptide) | IC50 [11]: 1 nM
100% | – | 100% | 100% | 6 nM | 100% | 3 nM | 100% | 10 nM | 100% | 32 nM | 100% | 2 nM | 100% | 7 nM | 9 nM | Melanotan II, Ac-Nle-c[Asp-His-DPhe-Arg-Trp-Lys]-NH2 (peptide) | –
100% | 10 nM | 70% | 0% | – | 24% | > 1000 nM | 57% | 240 nM | 67% | 99 nM | 21% | > 1000 nM | 100% | 0.9 nM | 37 nM | Ac-Arg-cyclo[Asp-Pip-D-Phe(4-Cl)-Arg-βTrp-Lys]-NH2 (peptide) | –
9% | – | 100% | 100% | 47 nM | 76% | 450 nM | 46% | 630 nM | 90% | 64 nM | 72% | 530 nM | 100% | 0.2 nM | 117 nM | Ac-Arg-cyclo[Asp-Pip-D-Phe(4-F)-Arg-βTrp-Lys]-NH2 (peptide) | –
100% | 0.4 nM | 24% | 0% | – | 89% | > 1000 nM | 67% | 47 nM | 120% | 220 nM | 90% | > 1000 nM | 100% | 0.1 nM | 600 nM | Ac-Arg-cyclo[Asp-Pip-D-Phe-βArg-Trp-Lys]-NH2 (peptide) | –
